Source: paper PMC10350915, “Development of a New Class of CXCR4-Targeting Radioligands Based on the Endogenous Antagonist EPI-X4 for Oncological Applications” (Journal of Medicinal Chemistry, 2023)
Where two headings read alike, the source gives them in different places. Square brackets hold non-standard residues; d marks the D form. Side chains are listed from the residue outwards. Ends that are not written are not given here. Peptide text beside a SMILES is read from it. * marks the point of attachment. DOTA = O=C(O)CN1CCN(CC(=O)O)CCN(CC(=O)*)CCN(CC(=O)O)CC1; Palmitoyl = CCCCCCCCCCCCCCCC(=O)*

Columns and labels:
[1] = format: in vitro ADME; conditions: human; for fraction unbound at 60 min: plasma, plasma protein binding (PPB); for plasma protein binding (PPB): 60 min
Method: (§1) Figure 3 Stability of the ^177Lu ligands in human plasma at 37 °C, expressed as % of intact radioligand over time, assessed by radio-HPLC. The % of plasma protein binding (PPB) after 60 min incubation is provided in parenthesis and it is expressed as the % of radioligand in the protein fraction (pellet) versus the total activity in the plasma. TEXT PRINTED IN THE PICTURE: ^177Lu-1: PPB: 35% | ^177Lu-2: PPB: 22% | ^177Lu-5: PPB: 42% | ^177Lu-6: PPB: 38% | ^177Lu-7: PPB: 39% | ^177Lu-9: PPB: 37%
For the determination of plasma protein binding (PPB), 100 μL from the plasma incubated with the ^177Lu ligand was removed and measured in a γ-counter (total radioactivity). Protein precipitation and separation followed, as described above. The supernatant and the protein pellet were then measured in a γ-counter. The percentage of plasma protein binding was calculated as the ratio between the protein-bound radioactivity and the total radioactivity in the plasma.

[2] = format: in vitro ADME, human
Method: Representative radiochromatograms are provided in Figure S25 for ^177Lu-1, ^177Lu-2, and ^177Lu-7. This included ^177Lu-9 despite its fatty acid chain.
as §1
To 1 mL of fresh human plasma, previously equilibrated at 37 °C, 500 pmol (8–10 MBq) of each ^177Lu-labeled ligand was added. The mixture was incubated at 37 °C for different time points (0, 15, 30, 60, and 120 min). At each time point, a 100 μL aliquot was removed and treated with 1.5 excess (v/v) of acetonitrile, to precipitate plasma proteins, followed by centrifugation for 5 min at 3500 rpm. The supernatant was collected and the process of protein precipitation was repeated. Afterward, 100 μL from the supernatant was taken, diluted with water at a ratio of 1:10 (v/v), and injected into radio-HPLC. The radioligand (in)stability was assessed by quantifying the percentage of intact radioligand over time.

[3] = target: T1, C-X-C motif chemokine receptor 4 (CXCR4) on Ghost-CXCR4 cells (UniProt P61073 1-352); test: flow cytometry on cells; competition with APC-labelled anti-CXCR4 antibody clone 12G5 at a fixed concentration close to its KD; Ghost-CXCR4 cells, 50,000 cells/well; ligands serially diluted in PBS; 4 °C, 2 h; PBS with 1% FBS; conditions: one partner purified
T1 construct: CXCR4 stably expressed in Ghost cells (NIH HIV Reagent Program); source: Ghost cells (human osteosarcoma cell line) stably transfected with CXCR4, also expressing CD4; on cells

[4] = target: T2, C-X-C motif chemokine receptor 4 (CXCR4) on Jurkat cells (human (endogenous in Jurkat), UniProt P61073 1-352); test: flow cytometry on cells; competition with APC-labelled anti-CXCR4 antibody clone 12G5 at a fixed concentration close to its KD; Jurkat cells, 50,000 cells/well; ligands serially diluted in PBS; 4 °C, 2 h; PBS with 1% FBS; conditions: one partner purified
T2 construct: CXCR4 naturally expressed at high levels on Jurkat cells (human T lymphoblasts); source: endogenous, on Jurkat cells (clone E6-1, ATCC)

[5] = target: T3, C-X-C motif chemokine receptor 4 (CXCR4) on Jurkat cells (human (endogenous in Jurkat), UniProt P61073 1-352)
T3 chain: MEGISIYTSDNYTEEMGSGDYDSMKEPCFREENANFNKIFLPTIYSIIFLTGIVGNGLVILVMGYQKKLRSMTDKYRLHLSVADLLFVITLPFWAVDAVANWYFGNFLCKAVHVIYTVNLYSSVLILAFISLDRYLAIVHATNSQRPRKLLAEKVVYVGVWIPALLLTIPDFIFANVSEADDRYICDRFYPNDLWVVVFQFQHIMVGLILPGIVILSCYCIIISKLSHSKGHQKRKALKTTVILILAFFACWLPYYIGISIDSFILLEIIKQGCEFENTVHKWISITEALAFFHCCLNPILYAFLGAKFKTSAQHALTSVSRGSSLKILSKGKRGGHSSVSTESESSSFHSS

[6] = target: T1, C-X-C motif chemokine receptor 4 …; test: radioligand binding; cellular uptake (surface-bound and internalised) of 177Lu ligands (1 nM) in Ghost-CXCR4 cells, 37 °C, 15-60 min, DMEM with 5% BSA; nonspecific uptake with 100,000-fold excess of AMD3100 subtracted; conditions: one partner purified

Molecule: CC[C@H](C)[C@H](N)C(=O)N[C@@H](CC(C)C)C(=O)N[C@@H](CCCNC(=N)N)C(=O)N[C@@H](Cc1c[nH]c2ccccc12)C(=O)N[C@@H](CO)C(=O)N[C@@H](CCCNC(=N)N)C(=O)N[C@@H](CCCCN)C(=O)N[C@@H](CC(C)C)C(=O)N1CCC[C@H]1C(=O)N[C@@H](CS)C(=O)N[C@H](C(=O)N[C@@H](CO)C(=O)N[C@@H](CCCCNC(=O)CN1CCN(CC(=O)O)CCN(CC(=O)O)CCN(CC(=O)O)CC1)C(=O)O)C(C)C [^177Lu-1, metal not drawn]
- fraction unbound at 60 min [1]: 0.65
- time to complete degradation in human plasma [2]: ≤ 15 min

Molecule: CC(C)C[C@@H](N)C(=O)N[C@@H](CC(C)C)C(=O)N[C@@H](CCCNC(=N)N)C(=O)N[C@@H](Cc1c[nH]c2ccccc12)C(=O)N[C@@H](CO)C(=O)N[C@@H](CCCNC(=N)N)C(=O)N[C@@H](CCCCN)C(=O)N[C@@H](CC(C)C)C(=O)N1CCC[C@H]1C(=O)N[C@@H](CS)C(=O)N[C@H](C(=O)N[C@@H](CO)C(=O)N[C@@H](CCCCNC(=O)CN1CCN(CC(=O)O)CCN(CC(=O)O)CCN(CC(=O)O)CC1)C(=O)O)C(C)C [^177Lu-6, metal not drawn]
- plasma protein binding (PPB) [1]: ~40%
- fraction unbound at 60 min [1]: 0.62
- time to complete degradation in human plasma [2]: ≤ 15 min

Molecule: CC[C@H](C)[C@H](N)C(=O)N[C@@H](CC(C)C)C(=O)N[C@@H](CCCNC(=N)N)C(=O)N[C@@H](Cc1c[nH]c2ccccc12)C(=O)N[C@@H](CO)C(=O)N[C@@H](CCCNC(=N)N)C(=O)N[C@@H](CCCCNC(=O)CN1CCN(CC(=O)O)CCN(CC(=O)O)CCN(CC(=O)O)CC1)C(N)=O [^177Lu-5, metal not drawn] (H-ILRWSRK(DOTA)-NH2; N-terminus assumed)
- plasma protein binding (PPB) [1]: ~40%
- fraction unbound at 60 min [1]: 0.58
- time to complete degradation in human plasma [2]: ≤ 15 min

B1: ligand-7 (peptide)
peptide: [dI]LRWSRKK(DOTA)-NH2
modifications: N-terminus assumed
SMILES: CC[C@@H](C)[C@@H](N)C(=O)N[C@@H](CC(C)C)C(=O)N[C@@H](CCCNC(=N)N)C(=O)N[C@@H](Cc1c[nH]c2ccccc12)C(=O)N[C@@H](CO)C(=O)N[C@@H](CCCNC(=N)N)C(=O)N[C@@H](CCCCN)C(=O)N[C@@H](CCCCNC(=O)CN1CCN(CC(=O)O)CCN(CC(=O)O)CCN(CC(=O)O)CC1)C(N)=O
notes: as ligand-4 with isoleucine 1 substituted by D-isoleucine; also called DOTA conjugate of JM#173; source: synthetic peptide (Fmoc solid phase synthesis, RP-HPLC purified)
- IC50 [3]: 570 nM
- IC50 [4]: 433 nM

B2: EPI-X4 JM#21 (peptide)
peptide: ILRWSRKLPCVS
notes: activity-optimised, truncated 12-mer derivative of EPI-X4 (rational design); source: synthetic peptide
- IC50 [3]: 183 nM
- IC50 [4]: 136 nM

B3: ligand-4 (peptide)
peptide: ILRWSRKK(DOTA)-NH2
notes: truncated JM#21 derivative with added C-terminal K(DOTA)-NH2; source: synthetic peptide (Fmoc solid phase synthesis, RP-HPLC purified)
- IC50 [3]: 295 nM
- IC50 [4]: 161 nM

B4: ^natLu-9 (peptide)
peptide: [dL]LRWSRK([Glu-Palmitoyl])K(DOTA)-NH2
modifications: also: natLu complexed by DOTA
notes: natLu and 177Lu complexes are written as one molecule; they differ only in the isotope; also called ^177Lu-9; Lu complex of ligand-9; source: synthetic peptide, complexed with natLuCl3; ^177Lu form labelled with 177LuCl3
- IC50 [3]: 6 nM
- IC50 [4]: 4 nM
- IC50 [5]: 20 nM

B5: ligand-9 (peptide)
peptide: [dL]LRWSRK([Glu-Palmitoyl])K(DOTA)-NH2
notes: main chain of 8 residues; source: synthetic peptide (Fmoc solid phase synthesis, RP-HPLC purified)
- IC50 [3]: 6 nM
- IC50 [4]: 13 nM

B6: ligand-5 (peptide)
peptide: ILRWSRK(DOTA)-NH2
modifications: N-terminus assumed
SMILES: CC[C@H](C)[C@H](N)C(=O)N[C@@H](CC(C)C)C(=O)N[C@@H](CCCNC(=N)N)C(=O)N[C@@H](Cc1c[nH]c2ccccc12)C(=O)N[C@@H](CO)C(=O)N[C@@H](CCCNC(=N)N)C(=O)N[C@@H](CCCCNC(=O)CN1CCN(CC(=O)O)CCN(CC(=O)O)CCN(CC(=O)O)CC1)C(N)=O
notes: shortest truncated JM#21 derivative; DOTA on its own K7; source: synthetic peptide (Fmoc solid phase synthesis, RP-HPLC purified)
- IC50 [3]: 424 nM
- IC50 [4]: 120 nM

B7: ^natLu-7 (peptide)
peptide: [dI]LRWSRKK(DOTA)-NH2
modifications: also: natLu complexed by DOTA
notes: natLu and 177Lu complexes are written as one molecule; they differ only in the isotope; also called ^177Lu-7; Lu complex of ligand-7; source: synthetic peptide, complexed with natLuCl3; ^177Lu form labelled with 177LuCl3
- IC50 [3]: 481 nM
- IC50 [4]: 435 nM
- IC50 [5]: 272 nM

B8: ligand-3 (peptide)
peptide: ILRWSRKLPK(DOTA)-NH2
modifications: N-terminus assumed
SMILES: CC[C@H](C)[C@H](N)C(=O)N[C@@H](CC(C)C)C(=O)N[C@@H](CCCNC(=N)N)C(=O)N[C@@H](Cc1c[nH]c2ccccc12)C(=O)N[C@@H](CO)C(=O)N[C@@H](CCCNC(=N)N)C(=O)N[C@@H](CCCCN)C(=O)N[C@@H](CC(C)C)C(=O)N1CCC[C@H]1C(=O)N[C@@H](CCCCNC(=O)CN1CCN(CC(=O)O)CCN(CC(=O)O)CCN(CC(=O)O)CC1)C(N)=O
notes: as for B3
- IC50 [3]: 98 nM
- IC50 [4]: 45 nM

Molecule: IVRWSKK(Palmitoyl)VPCSK(DOTA) (also: natLu complexed by DOTA) [^natLu-8]
- IC50 [3]: 30 nM
- IC50 [4]: 18 nM

B9: EPI-X4 (endogenous peptide inhibitor of CXCR4) (peptide)
peptide: LVRYTKKVPQVSTPTL
notes: 16-mer fragment of human serum albumin; also called wild-type EPI-X4; source: synthetic peptide
- IC50 [3]: 4540 nM
- IC50 [4]: 1780 nM

B10: ^natLu-1 (peptide)
peptide: ILRWSRKLPCVSK(DOTA)
modifications: also: natLu complexed by DOTA
notes: natLu and 177Lu complexes are written as one molecule; they differ only in the isotope; also called ^177Lu-1; Lu complex of ligand-1 (monomer); source: synthetic peptide, complexed with natLuCl3, monomer isolated by semipreparative RP-HPLC; ^177Lu form labelled with 177LuCl3 in the presence of DTT
- cellular uptake (% of applied activity) [6]: ~1 % of applied activity
- IC50 [3]: 278 nM
- IC50 [4]: 208 nM
- IC50 [5]: 15 nM

B11: ligand-1 (peptide)
peptide: ILRWSRKLPCVSK(DOTA)
notes: source: synthetic peptide (Fmoc solid phase synthesis, RP-HPLC purified)
- IC50 [3]: 254 nM
- IC50 [4]: 303 nM

B12: ^natLu-2 (peptide)
peptide: ILRWSRKLPSVSK(DOTA)
modifications: also: natLu complexed by DOTA
notes: natLu and 177Lu complexes are written as one molecule; they differ only in the isotope; also called ^177Lu-2; Lu complex of ligand-2; source: synthetic peptide, complexed with natLuCl3; ^177Lu form labelled with 177LuCl3
- cellular uptake (% of applied activity) [6]: ~1 % of applied activity
- IC50 [4]: 49 nM
- IC50 [5]: 65 nM

B13: ligand-2 (peptide)
peptide: ILRWSRKLPSVSK(DOTA)
notes: as ligand-1 with serine instead of cysteine at position 10; source: synthetic peptide (Fmoc solid phase synthesis, RP-HPLC purified)
- IC50 [3]: 258 nM
- IC50 [4]: 172 nM

B14: ^natLu-6 (peptide)
peptide: [dL]LRWSRKLPCVSK(DOTA)
modifications: also: DOTA complexed with natLu
notes: natLu and 177Lu complexes are written as one molecule; they differ only in the isotope; also called ^177Lu-6; Lu complex of ligand-6 (monomer); source: synthetic peptide, complexed with natLuCl3, monomer isolated by semipreparative RP-HPLC; ^177Lu form labelled with 177LuCl3 in the presence of DTT
- cellular uptake (% of applied activity) [6]: ~1 % of applied activity
- IC50 [3]: 1010 nM
- IC50 [4]: 465 nM

B15: ligand-6 (peptide)
peptide: [dL]LRWSRKLPCVSK(DOTA)
notes: as ligand-1 with isoleucine 1 substituted by D-leucine; source: synthetic peptide (Fmoc solid phase synthesis, RP-HPLC purified)
- IC50 [3]: 747 nM
- IC50 [4]: 428 nM

B16: ^natLu-5 (peptide)
peptide: ILRWSRK(DOTA)-NH2
modifications: also: natLu complexed by DOTA
notes: natLu and 177Lu complexes are written as one molecule; they differ only in the isotope; also called ^177Lu-5; Lu complex of ligand-5; source: synthetic peptide, complexed with natLuCl3; ^177Lu form labelled with 177LuCl3
- cellular uptake (% of applied activity) [6]: ~1 % of applied activity
- IC50 [3]: 197 nM
- IC50 [4]: 113 nM
- IC50 [5]: 104 nM
